Read-outs that look alike come from different tables or passages of the source.
Test system: peptide substrates
Type: biochemical

B1: hTET: Pyrococcus horikoshii TET aminopeptidase, SEQ ID NO: 59 (protein, listed as Pyrococcus horikoshii)
chain: MEVRNMVDYELLKKVVEAPGVSGYEFLGIRDVVIEEIKDYVDEVKVDKLGNVIAHKKGEGPKVMIAAHMDQIGLMVTHIEKNGFLRVAPIGGVDPKTLIAQRFKVWIDKGKFIYGVGASVPPHIQKPEDRKKAPDWDQIFIDIGAESKEEAEDMGVKIGTVITWDGRLERLGKHRFVSIAFDDRIAVYTILEVAKQLKDAKADVYFVATVQEEVGLRGARTSAFGIEPDYGFAIDVTIAADIPGTPEHKQVTHLGKGTAIKIMDRSVICHPTIVRWLEELAKKHEIPYQLEILLGGGTDAGAIHLTKAGVPTGALSVPARYIHSNTEVVDERDVDATVELMTKALENIHELKI
- HPLC Assay Conv (substrate AAPFQQ (SEQ ID NO: 118), 1 mM Peptide, 1 μM enzyme, 10 mM Mg(OAc)2, 50 mM MOPS pH 8, 60 mM KOAc, RT/0.5 hr): 100%
- HPLC Assay Conv (substrate CCPFQQ (SEQ ID NO: 144), 1 mM Peptide, 1 μM enzyme, 10 mM Mg(OAc)2, 50 mM MOPS pH 8, 60 mM KOAc, RT/0.5 hr): 32%
- HPLC Assay Conv (substrate DDPFQQ (SEQ ID NO: 126), 1 mM Peptide, 1 μM enzyme, 10 mM Mg(OAc)2, 50 mM MOPS pH 8, 60 mM KOAc, RT/0.5 hr): 4%
- HPLC Assay Conv (substrate EEPFQQ (SEQ ID NO: 128), 1 mM Peptide, 1 uM enzyme, 10 mM Mg(OAc)2, 50 mM MOPS pH 8, 60 mM KOAc, RT/0.5 hr): 0%
- HPLC Assay Conv (substrate FFPFQQ (SEQ ID NO: 124), 1 mM Peptide, 1 μM enzyme, 10 mM Mg(OAc)2, 50 mM MOPS pH 8, 60 mM KOAc, RT/0.5 hr): 100%
- HPLC Assay Conv (substrate GGPFQQ (SEQ ID NO: 152), 1 mM Peptide, 1 uM enzyme, 10 mM Mg(OAc)2, 50 mM MOPS pH 8, 60 mM KOAc, RT/0.5 hr): 33%
- HPLC Assay Conv (substrate HHPFQQ (SEQ ID NO: 154), 1 mM Peptide, 1 uM enzyme, 10 mM Mg(OAc)2, 50 mM MOPS pH 8, 60 mM KOAc, RT/0.5 hr): 26%
- HPLC Assay Conv (substrate IIPFQQ (SEQ ID NO: 136), 1 mM Peptide, 1 μM enzyme, 10 mM Mg(OAc)2, 50 mM MOPS pH 8, 60 mM KOAc, RT/0.5 hr): 100%
- HPLC Assay Conv (substrate KKPFQQ (SEQ ID NO: 120), 1 mM Peptide, 1 uM enzyme, 10 mM Mg(OAc)2, 50 mM MOPS pH 8, 60 mM KOAc, RT/0.5 hr): 0%
- HPLC Assay Conv (substrate LLPFQQ (SEQ ID NO: 138), 1 mM Peptide, 1 μM enzyme, 10 mM Mg(OAc)2, 50 mM MOPS pH 8, 60 mM KOAc, RT/0.5 hr): 100%
- HPLC Assay Conv (substrate MMPFQQ (SEQ ID NO: 148), 1 mM Peptide, 1 uM enzyme, 10 mM Mg(OAc)2, 50 mM MOPS pH 8, 60 mM KOAc, RT/0.5 hr): 0%
- HPLC Assay Conv (substrate NNPFQQ (SEQ ID NO: 130), 1 mM Peptide, 1 μM enzyme, 10 mM Mg(OAc)2, 50 mM MOPS pH 8, 60 mM KOAc, RT/0.5 hr): 69%
- HPLC Assay Conv (substrate PPPFQQ (SEQ ID NO: 150), 1 mM Peptide, 1 uM enzyme, 10 mM Mg(OAc)2, 50 mM MOPS pH 8, 60 mM KOAc, RT/0.5 hr): 0%
- HPLC Assay Conv (substrate QQPFQQ (SEQ ID NO: 132), 1 mM Peptide, 1 μM enzyme, 10 mM Mg(OAc)2, 50 mM MOPS pH 8, 60 mM KOAc, RT/0.5 hr): 63%
- HPLC Assay Conv (substrate RRPFQQ (SEQ ID NO: 116), 1 mM Peptide, 1 uM enzyme, 10 mM Mg(OAc)2, 50 mM MOPS pH 8, 60 mM KOAc, RT/0.5 hr): 0%
- HPLC Assay Conv (substrate SSPFQQ (SEQ ID NO: 140), 1 mM Peptide, 1 μM enzyme, 10 mM Mg(OAc)2, 50 mM MOPS pH 8, 60 mM KOAc, RT/0.5 hr): 100%
- HPLC Assay Conv (substrate TTPFQQ (SEQ ID NO: 142), 1 mM Peptide, 1 μM enzyme, 10 mM Mg(OAc)2, 50 mM MOPS pH 8, 60 mM KOAc, RT/0.5 hr): 100%
- HPLC Assay Conv (substrate VVPFQQ (SEQ ID NO: 134), 1 mM Peptide, 1 μM enzyme, 10 mM Mg(OAc)2, 50 mM MOPS pH 8, 60 mM KOAc, RT/0.5 hr): 100%
- HPLC Assay Conv (substrate WWPFQQ (SEQ ID NO: 146), 1 mM Peptide, 1 μM enzyme, 10 mM Mg(OAc)2, 50 mM MOPS pH 8, 60 mM KOAc, RT/0.5 hr): 4%
- HPLC Assay Conv (substrate YYPFQQ (SEQ ID NO: 122), 1 mM Peptide, 1 μM enzyme, 10 mM Mg(OAc)2, 50 mM MOPS pH 8, 60 mM KOAc, RT/0.5 hr): 99%
- HPLC Assay Conv (substrate […]1 (SEQ ID NO: 156), 1 mM Peptide, 1.0 μM enzyme, 10 mM Mg(OAc)2, 50 mM MOPS pH 8, 60 mM KOAc, RT/0.5 hr): 100%
- HPLC Assay Conv (substrate […], 200 μM Peptide, 2 μM, 37° C. (rest of the wrapped entry lies below the rows shown)): 55%
- HPLC Assay Conv (substrate […]{LYSN3}NH2 (SEQ ID NO: 107), 200 μM Peptide, 2 μM enzyme, 10 mM MgCl2, 50 mM MOPS pH 8.0, 37° C./1 hr): 55%
- HPLC Assay Conv (substrate […]{LYSN3}NH2 (SEQ ID NO: 109), 200 μM Peptide, 4 μM enzyme, 10 mM MgCl2, 50 mM MOPS pH 8.0, 37° C./1 hr): 100%

B2: V. anguillarum APN (protein)
chain: MEEKVWISIGGDATQTALRSGAQSLLPENLINQTSVWVGQVPVSELATLSHEMHENHQRCGGYMVHPSAQSAMSVSAMPLNLNAFSAPEITQQTTVNAWLPSVSAQQITSTITTLTQFKNRFYTTSTGAQASNWIADHWRSLSASLPASKVEQITHSGYNQKSVMLTITGSEKPDEWVVIGGHLDSTLGSRTNESSIAPGADDDASGIAGVTEIIRLLSEQNFRPKRSIAFMAYAAEEVGLRGSQDLANRFKAEGKKVMSVMQLDMTNYQGSREDIVFITDYTDSNFTQYLTQLLDEYLPSLTYGFDTCGYACSDHASWHAVGYPAAMPFESKFNDYNPNIHSPQDTLQNSDPTGFHAVKFTKLGLAYVVEMGNASTPPTPSNQLKNGVPVNGLSASRNSKTWYQFELQEAGNLSIVLSGGSGDADLYVKYQTDADLQQYDCRPYRSGNNETCQFSNAQPGRYSILLHGYNNYSNASLVANAQ
- HPLC Assay Conv (substrate AAPAAP{LYSN3}NH2 (SEQ ID NO: 98), 1 mM peptide, 2 μM enzyme, 2.5 mM ZnCl2, 25 mM Tris pH 8.0, 30° C./1 hr): 50%
- HPLC Assay Conv (substrate KKPKKP{LYSN3}NH2 (SEQ ID NO: 100), 1 mM peptide, 2 μM enzyme, 2.5 mM ZnCl2, 25 mM Tris pH 8.0, 30° C./1 hr): <5%
- HPLC Assay Conv (substrate RRPRRP{LYSN3}NH2 (SEQ ID NO: 96), 1 mM peptide, 2 μM enzyme, 2.5 mM ZnCl2, 25 mM Tris pH 8.0, 30° C./1 hr): >90%

B3: VPr pAzF (protein)
chain: MPPITQQATVTAWLPQVDASQITGTISSLESFTNRFYTTTSGAQASDWIASEWQALSASLPNASVKQVSHSGYNQKSVVMTITGSEAPDEWIVIGGHLDSTIGSHTNEQSVAPGADDDASGIAAVTEVIRVLSENNFQPKRSIAFMAYAAEEVGLRGSQDLANQYKSEGKNVVSALQLDMTNYKGSAQDVVFITDYTDSNFTQYLTQLMDEYLPSLTYGFDTCGYACSDHASWHNAGYPAAMPFESKFNDYNPRIHTTQDTLANSDPTGSHAKKFTQLGLAYAIEMGSATGDTPTPGNQ
modifications: non-natural residues
- HPLC Assay Conv (substrate […]{LYSN3}NH2 (SEQ ID NO: 107), 200 μM Peptide, 4 μM enzyme, 10 mM MgCl2, 50 mM MOPS pH 8.0, 37° C./1 hr): 96%

B4: NPEPPS: puromycin-sensitive aminopeptidase, SEQ ID NO: 56 (protein)
chain: MWLAAAAPSLARRLLFLGPPPPPLLLLVFSRSSRRRLHSLGLAAMPEKRPFERLPADVSPINYSLCLKPDLLDFTFEGKLEAAAQVRQATNQIVMNCADIDIITASYAPEGDEEIHATGFNYQNEDEKVTLSFPSTLQTGTGTLKIDFVGELNDKMKGFYRSKYTTPSGEVRYAAVTQFEATDARRAFPCWDEPAIKATFDISLVVPKDRVALSNMNVIDRKPYPDDENLVEVKFARTPVMSTYLVAFVVGEYDFVETRSKDGVCVRVYTPVGKAEQGKFALEVAAKTLPFYKDYFNVPYPLPKIDLIAIADFAAGAMENWGLVTYRETALLIDPKNSCSSSRQWVALVVGHELAHQWFGNLVTMEWWTHLWLNEGFASWIEYLCVDHCFPEYDIWTQFVSADYTRAQELDALDNSHPIEVSVGHPSEVDEIFDAISYSKGASVIRMLHDYIGDKDFKKGMNMYLTKFQQKNAATEDLWESLENASGKPIAAVMNTWTKQMGFPLIYVEAEQVEDDRLLRLSQKKFCAGGSYVGEDCPQWMVPITISTSEDPNQAKLKILMDKPEMNVVLKNVKPDQWVKLNLGTVGFYRTQYSSAMLESLLPGIRDLSLPPVDRLGLQNDLFSLARAGIISTVEVLKVMEAFVNEPNYTVWSDLSCNLGILSTLLSHTDFYEEIQEFVKDVFSPIGERLGWDPKPGEGHLDALLRGLVLGKLGKAGHKATLEEARRRFKDHVEGKQILSADLRSPVYLTVLKHGDGTTLDIMLKLHKQADMQEEKNRIERVLGATLLPDLIQKVLTFALSEEVRPQDTVSVIGGVAGGSKHGRKAAWKFIKDNWEELYNRYQGGFLISRLIKLSVEGFAVDKMAGEVKAFFESHPAPSAERTIQQCCENILLNAAWLKRDAESIHQYLLQRKASPPTV
modifications: Puromycin-sensitive aminopeptidase
- HPLC Assay Conv (substrate LeuTyr 5 mM, 700 nM enzyme, 25 mM HEPES, 1 mM Mg(OAc)2, 1 mM DTT, pH 7.5, 37° C./1 hr): 5%
